Reference: paper PMC13170675, “A Wnt-induced conformational phospho-switch in DVL3 controls association with Frizzled receptors and Wnt/β-catenin signaling” (Science Advances, 2026)

Target: the molecule itself
Assay: native MS; native ESI-MS, 200 mM ammonium acetate buffer (pH 7.4); monomeric species are the main ones, homodimeric species detected

Protein	binding result
hDVL3 PDZ-IDR2-DEP (amino acids 243 to 496), nonphosphorylated (domain or fragment, human, UniProt Q92997 243-496, looked up, human Dishevelled 3 (DVL3), PDZ domain, IDR2 and DEP domain, amino acids 243 to 496; source: E. coli BL21 (DE3), purified (Ni-NTA, TEV cleavage, second Ni-NTA, anion exchange, SEC); not shown: His6, N-terminal, cleaved) MSLNIITVTLNMEKYNFLGISIVGQSNERGDGGIYIGSIMKGGAVAADGRIEPGDMLLQVNEINFENMSNDDAVRVLREIVHKPGPITLTVAKCWDPSPRGCFTLPRSEPIRPIDPAAWVSHTAAMTGTFPAYGMSPSLSTITSTSSSITSSIPDTERLDDFHLSIHSDMAAIVKAMASPESGLEVRDRMWLKITIPNAFIGSDVVDWLYHNVEGFTDRREARKYASNLLKAGFIRHTVNKITFSEQCYYIFGD	binds
phosphorylated hDVL3 PDZ-IDR2-DEP (amino acids 243 to 496) (domain or fragment, human, UniProt Q92997 243-496, looked up, 8 to 19 phosphates present (native ESI-MS), on S/T residues of IDR2, by CK1ε, human Dishevelled 3 (DVL3), PDZ domain, phosphorylated IDR2 and DEP domain, amino acids 243 to 496; also called PDZ-pIDR2-DEP; source: E. coli BL21 (DE3), purified; phosphorylated by CK1ε; not shown: His6, N-terminal, cleaved) MSLNIITVTLNMEKYNFLGISIVGQSNERGDGGIYIGSIMKGGAVAADGRIEPGDMLLQVNEINFENMSNDDAVRVLREIVHKPGPITLTVAKCWDPSPRGCFTLPRSEPIRPIDPAAWVSHTAAMTGTFPAYGMSPSLSTITSTSSSITSSIPDTERLDDFHLSIHSDMAAIVKAMASPESGLEVRDRMWLKITIPNAFIGSDVVDWLYHNVEGFTDRREARKYASNLLKAGFIRHTVNKITFSEQCYYIFGD	binds
